Laboratory results from IntAct's records for PubMed 17166838.

B1: Huntingtin-associated protein 1 (Rattus norvegicus (Rat)), P54256-2 (parent)
chain: MRPKDQVQSSAGDGTGSGDPATGTPTTQPAADPAPEPSAEPKPAPAQGTGSGQKSGSRTKTGGSFCRSRIRGDSDAPWTRYIFQGPYGPRATGLGTGRAEGIWKTPAAYIGRRPGVSGPERAAFIRELQEALCPNPLPRKKITEDDIKVMLYLLEEKERDLNTAARIGQSLVKQNSVLMEENNKLETMLGSAREEILHLRKQVNLRDDLLQLYSDSDDDEEDEEDEEEEEGEEEEREGQRDQDQQHDHPYGAPKPPPKAETLHHCPQLEALKQKLKLLEEENDHLREEASHLDNLEDKEQMLILECVEQFSEASQQMAELSEVLVLRLEGYERQQKEITQLQAEITKLQQRCQSYGAQTEKLQQQLASEKGVHPESLRAGSHMQDYGSRPRERQEDGKSHRQRSSMPAGSVTHYGYSVPLDALPSFPETLAEELRTSLRKFITDPAYFMERCDTRCREERKKEQGTMPPPPVQDLKPPEDFEAPEELVPEEELGAIEEVGTAEDGPAEETEQASEETEAWEEVEPEVDEATRMNVVVSALEASGLGPSHLDMKYVLQQLSNWQDAHSKRQQKQKVVPKGECSRRGHPPASGTSYRSSTL

Variants of: B1
Conditions: with 1433z_human YWHAZ

effect of a mutation on the interaction | Variant
disrupting interaction | MRPKDQVQSSAGDGTGSGDPATGTPTTQPAADPAPEPSAEPKPAPAQGTGSGQKSGSRTKTGGSFCRSRIRGDSDAPWTRYIFQGPYGPRATGLGTGRAEGIWKTPAAYIGRRPGVSGPERAAFIRELQEALCPNPLPRKKITEDDIKVMLYLLEEKERDLNTAARIGQSLVKQNSVLMEENNKLETMLGSAREEILHLRKQVNLRDDLLQLYSDSDDDEEDEEDEEEEEGEEEEREGQRDQDQQHDHPYGAPKPPPKAETLHHCPQLEALKQKLKLLEEENDHLREEASHLDNLEDKEQMLILECVEQFSEASQQMAELSEVLVLRLEGYERQQKEITQLQAEITKLQQRCQSYGAQTEKLQQQLASEKGVHPESLRAGSHMQDYGSRPRERQEDGKSHRQRSSMPAGSVTHYGYSVPLDALPSFPETLAEELRTSLRKFITDPAYFMERCDTRCREERKKEQGTMPPPPVQDLKPPEDFEAPEELVPEEELGAIEEVGTAEDGPAEETEQASEETEAWEEVEPEVDEATRMNVVVSALEASGLGPSHLDMKYVLQQLSNWQDAHSKRQQKQKVVPKGECSRRGHPPASGTSYRSSAL [T598A]
